# How the values were obtained:
# [1] = tested on: GFP-14-3-3β and its binding proteins; experiment: GFP-14-3-3β co-IP with LC-MS/MS label-free quantification, untreated versus PP1c-treated; design: species or system human; conditions: PP1 vs untreated; LFQ intensities, replicates 1-3
# GFP-14-3-3β = GFP-14-3-3β co-IP with LC-MS/MS, untreated GFP-14-3-3β versus GFP control (14-3-3 interactome); assay type: binding, human; conditions: untreated vs GFP; LFQ intensities, replicates 1-3
"Difference (log2), PP1 vs untreated [1] [log2]",Molecule,"Difference (log2), untreated vs GFP (GFP-14-3-3β) [log2]"
-1.637,"MITF (protein, UniProt O75030 1-526, looked up) Microphthalmia-associated …: MQSESGIVPDFEVGEEFHEEPKTYYELKSQPLKSSSSAEHPGASKPPISSSSMTSRILLRQQLMREQMQEQERREQQQKLQAAQFMQQRVPVSQTPAINVSVPTTLPSATQVPMEVLKVQTHLENPTKYHIQQAQRQQVKQYLSTTLANKHANQVLSLPCPNQPGDHVMPPVPGSSAPNSPMAMLTLNSNCEKEGFYKFEEQNRAESECPGMNTHSRASCMQMDDVIDDIISLESSYNEEILGLMDPALQMANTLPVSGNLIDLYGNQGLPPPGLTISNSCPANLPNIKRELTACIFPTESEARALAKERQKKDNHNLIERRRRFNINDRIKELGTLIPKSNDPDMRWNKGTILKASVDYIRKLQREQQRAKELENRQKKLEHANRHLLLRIQELEMQARAHGLSLIPSTGLCSPDLVNRIIKQEPVLENCSQDLLQHHADLTCTTTLDLTDGTITFNNNLGTGTEANQAYSVPTKMGSKLEDILMDDTLSPVGVTDPLLSSVSPGASKTSSRRSSMSMEETEHTC",4.611
-1.815,"RHPN2 (protein, UniProt Q8IUC4 1-686, looked up) Rhophilin-2: MTDALLPAAPQPLEKENDGYFRKGCNPLAQTGRSKLQNQRAALNQQILKAVRMRTGAENLLKVATNSKVREQVRLELSFVNSDLQMLKEELEGLNISVGVYQNTEEAFTIPLIPLGLKETKDVDFAVVLKDFILEHYSEDGYLYEDEIADLMDLRQACRTPSRDEAGVELLMTYFIQLGFVESRFFPPTRQMGLLFTWYDSLTGVPVSQQNLLLEKASVLFNTGALYTQIGTRCDRQTQAGLESAIDAFQRAAGVLNYLKDTFTHTPSYDMSPAMLSVLVKMMLAQAQESVFEKISLPGIRNEFFMLVKVAQEAAKVGEVYQQLHAAMSQAPVKENIPYSWASLACVKAHHYAALAHYFTAILLIDHQVKPGTDLDHQEKCLSQLYDHMPEGLTPLATLKNDQQRRQLGKSHLRRAMAHHEESVREASLCKKLRSIEVLQKVLCAAQERSRLTYAQHQEEDDLLNLIDAPSVVAKTEQEVDIILPQFSKLTVTDFFQKLGPLSVFSANKRWTPPRSIRFTAEEGDLGFTLRGNAPVQVHFLDPYCSASVAGAREGDYIVSIQLVDCKWLTLSEVMKLLKSFGEDEIEMKVVSLLDSTSSMHNKSATYSVGMQKTYSMICLAIDDDDKTDKTKKISKKLSFLSWGTNKNRQKSASTLCLPSVGAARPQVKKKLPSPFSLLNSDSSWY",5.43
-1.93,"PPP1R12A (protein, UniProt O14974 1-1030, looked up) Protein phosphatase 1 …: MKMADAKQKRNEQLKRWIGSETDLEPPVVKRQKTKVKFDDGAVFLAACSSGDTDEVLKLLHRGADINYANVDGLTALHQACIDDNVDMVKFLVENGANINQPDNEGWIPLHAAASCGYLDIAEFLIGQGAHVGAVNSEGDTPLDIAEEEAMEELLQNEVNRQGVDIEAARKEEERIMLRDARQWLNSGHINDVRHAKSGGTALHVAAAKGYTEVLKLLIQAGYDVNIKDYDGWTPLHAAAHWGKEEACRILVDNLCDMEMVNKVGQTAFDVADEDILGYLEELQKKQNLLHSEKRDKKSPLIESTANMDNNQSQKTFKNKETLIIEPEKNASRIESLEQEKVDEEEEGKKDESSCSSEEDEEDDSESEAETDKTKPLASVTNANTSSTQAAPVAVTTPTVSSGQATPTSPIKKFPTTATKISPKEEERKDESPATWRLGLRKTGSYGALAEITASKEGQKEKDTAGVTRSASSPRLSSSLDNKEKEKDSKGTRLAYVAPTIPRRLASTSDIEEKENRDSSSLRTSSSYTRRKWEDDLKKNSSVNEGSTYHKSCSFGRRQDDLISSSVPSTTSTPTVTSAAGLQKSLLSSTSTTTKITTGSSSAGTQSSTSNRLWAEDSTEKEKDSVPTAVTIPVAPTVVNAAASTTTLTTTTAGTVSSTTEVRERRRSYLTPVRDEESESQRKARSRQARQSRRSTQGVTLTDLQEAEKTIGRSRSTRTREQENEEKEKEEKEKQDKEKQEEKKESETSREDEYKQKYSRTYDETYQRYRPVSTSSSTTPSSSLSTMSSSLYASSQLNRPNSLVGITSAYSRGITKENEREGEKREEEKEGEDKSQPKSIRERRRPREKRRSTGVSFWTQDSDENEQEQQSDTEEGSNKKETQTDSISRYETSSTSAGDRYDSLLGRSGSYSYLEERKPYSSRLEKDDSTDFKKLYEQILAENEKLKAQLHDTNMELTDLKLQLEKATQRQERFADRSLLEMEKRERRALERRISEMEEELKMLPDLKADNQRLKDENGALIRVISKLSK",2.126
-1.944,"KIF5B (protein, UniProt P33176 2-963, looked up) Kinesin-1 heavy chain: ADLAECNIKVMCRFRPLNESEVNRGDKYIAKFQGEDTVVIASKPYAFDRVFQSSTSQEQVYNDCAKKIVKDVLEGYNGTIFAYGQTSSGKTHTMEGKLHDPEGMGIIPRIVQDIFNYIYSMDENLEFHIKVSYFEIYLDKIRDLLDVSKTNLSVHEDKNRVPYVKGCTERFVCSPDEVMDTIDEGKSNRHVAVTNMNEHSSRSHSIFLINVKQENTQTEQKLSGKLYLVDLAGSEKVSKTGAEGAVLDEAKNINKSLSALGNVISALAEGSTYVPYRDSKMTRILQDSLGGNCRTTIVICCSPSSYNESETKSTLLFGQRAKTIKNTVCVNVELTAEQWKKKYEKEKEKNKILRNTIQWLENELNRWRNGETVPIDEQFDKEKANLEAFTVDKDITLTNDKPATAIGVIGNFTDAERRKCEEEIAKLYKQLDDKDEEINQQSQLVEKLKTQMLDQEELLASTRRDQDNMQAELNRLQAENDASKEEVKEVLQALEELAVNYDQKSQEVEDKTKEYELLSDELNQKSATLASIDAELQKLKEMTNHQKKRAAEMMASLLKDLAEIGIAVGNNDVKQPEGTGMIDEEFTVARLYISKMKSEVKTMVKRCKQLESTQTESNKKMEENEKELAACQLRISQHEAKIKSLTEYLQNVEQKKRQLEESVDALSEELVQLRAQEKVHEMEKEHLNKVQTANEVKQAVEQQIQSHRETHQKQISSLRDEVEAKAKLITDLQDQNQKMMLEQERLRVEHEKLKATDQEKSRKLHELTVMQDRREQARQDLKGLEETVAKELQTLHNLRKLFVQDLATRVKKSAEIDSDDTGGSAAQKQKISFLENNLEQLTKVHKQLVRDNADLRCELPKLEKRLRATAERVKALESALKEAKENASRDRKRYQQEVDRIKEAVRSKNMARRGHSAQIAKPIRPGQHPAASPTHPSAIRGGGAFVQNSQPVAVRGGGGKQV",3.573
-1.618,"MAP3K2 (protein, UniProt Q9Y2U5 1-619, looked up) Mitogen-activated protein …: MDDQQALNSIMQDLAVLHKASRPALSLQETRKAKSSSPKKQNDVRVKFEHRGEKRILQFPRPVKLEDLRSKAKIAFGQSMDLHYTNNELVIPLTTQDDLDKAVELLDRSIHMKSLKILLVINGSTQATNLEPLPSLEDLDNTVFGAERKKRLSIIGPTSRDRSSPPPGYIPDELHQVARNGSFTSINSEGEFIPESMDQMLDPLSLSSPENSGSGSCPSLDSPLDGESYPKSRMPRAQSYPDNHQEFSDYDNPIFEKFGKGGTYPRRYHVSYHHQEYNDGRKTFPRARRTQGTSLRSPVSFSPTDHSLSTSSGSSIFTPEYDDSRIRRRGSDIDNPTLTVMDISPPSRSPRAPTNWRLGKLLGQGAFGRVYLCYDVDTGRELAVKQVQFDPDSPETSKEVNALECEIQLLKNLLHERIVQYYGCLRDPQEKTLSIFMEYMPGGSIKDQLKAYGALTENVTRKYTRQILEGVHYLHSNMIVHRDIKGANILRDSTGNVKLGDFGASKRLQTICLSGTGMKSVTGTPYWMSPEVISGEGYGRKADIWSVACTVVEMLTEKPPWAEFEAMAAIFKIATQPTNPKLPPHVSDYTRDFLKRIFVEAKLRPSADELLRHMFVHYH",6.201
-1.71,"CCT2 (protein, UniProt P78371 2-535, looked up) T-complex protein 1 subunit …: ASLSLAPVNIFKAGADEERAETARLTSFIGAIAIGDLVKSTLGPKGMDKILLSSGRDASLMVTNDGATILKNIGVDNPAAKVLVDMSRVQDDEVGDGTTSVTVLAAELLREAESLIAKKIHPQTIIAGWREATKAAREALLSSAVDHGSDEVKFRQDLMNIAGTTLSSKLLTHHKDHFTKLAVEAVLRLKGSGNLEAIHIIKKLGGSLADSYLDEGFLLDKKIGVNQPKRIENAKILIANTGMDTDKIKIFGSRVRVDSTAKVAEIEHAEKEKMKEKVERILKHGINCFINRQLIYNYPEQLFGAAGVMAIEHADFAGVERLALVTGGEIASTFDHPELVKLGSCKLIEEVMIGEDKLIHFSGVALGEACTIVLRGATQQILDEAERSLHDALCVLAQTVKDSRTVYGGGCSEMLMAHAVTQLANRTPGKEAVAMESYAKALRMLPTIIADNAGYDSADLVAQLRAAHSEGNTTAGLDMREGTIGDMAILGITESFQVKRQVLLSAAEAAEVILRVDNIIKAAPRKRVPDHHPC",0.06414
-1.555,"SH3PXD2A (protein, UniProt Q5TCZ1 1-1133, looked up) SH3 and PX domain-containing …: MLAYCVQDATVVDVEKRRNPSKHYVYIINVTWSDSTSQTIYRRYSKFFDLQMQLLDKFPIEGGQKDPKQRIIPFLPGKILFRRSHIRDVAVKRLKPIDEYCRALVRLPPHISQCDEVFRFFEARPEDVNPPKEDYGSSKRKSVWLSSWAESPKKDVTGADATAEPMILEQYVVVSNYKKQENSELSLQAGEVVDVIEKNESGWWFVSTSEEQGWVPATYLEAQNGTRDDSDINTSKTGEVSKRRKAHLRRLDRRWTLGGMVNRQHSREEKYVTVQPYTSQSKDEIGFEKGVTVEVIRKNLEGWWYIRYLGKEGWAPASYLKKAKDDLPTRKKNLAGPVEIIGNIMEISNLLNKKASGDKETPPAEGEGHEAPIAKKEISLPILCNASNGSAVGVPDRTVSRLAQGSPAVARIAPQRAQISSPNLRTRPPPRRESSLGFQLPKPPEPPSVEVEYYTIAEFQSCISDGISFRGGQKAEVIDKNSGGWWYVQIGEKEGWAPASYIDKRKKPNLSRRTSTLTRPKVPPPAPPSKPKEAEEGPTGASESQDSPRKLKYEEPEYDIPAFGFDSEPELSEEPVEDRASGERRPAQPHRPSPASSLQRARFKVGESSEDVALEEETIYENEGFRPYAEDTLSARGSSGDSDSPGSSSLSLTRKNSPKSGSPKSSSLLKLKAEKNAQAEMGKNHSSASFSSSITINTTCCSSSSSSSSSLSKTSGDLKPRSASDAGIRGTPKVRAKKDADANAGLTSCPRAKPSVRPKPFLNRAESQSQEKMDISTLRRQLRPTGQLRGGLKGSKSEDSELPPQTASEAPSEGSRRSSSDLITLPATTPPCPTKKEWEGPATSYMTCSAYQKVQDSEISFPAGVEVQVLEKQESGWWYVRFGELEGWAPSHYLVLDENEQPDPSGKELDTVPAKGRQNEGKSDSLEKIERRVQALNTVNQSKKATPPIPSKPPGGFGKTSGTPAVKMRNGVRQVAVRPQSVFVSPPPKDNNLSCALRRNESLTATDGLRGVRRNSSFSTARSAAAEAKGRLAERAASQGSDSPLLPAQRNSIPVSPVRPKPIEKSQFIHNNLKDVYVSIADYEGDEETAGFQEGVSMEVLERNPNGWWYCQILDGVKPFKGWVPSNYLEKKN",3.934
